Test results from publication PMC11191641.

Biological target: His-tagged ferritin-based nanoparticle (FNP): Helicobacter pylori ferritin with N-terminal domain B (S. aureus | Helicobacter pylori)
Assay: BLI
Conditions: Fc fusion

## NiV-B-G-Fc: Nipah virus Bangladesh attachment glycoprotein G (residues 176-602) fused with a C-terminal human IgG1 Fc (from UniProt P01857)
  Kd: 9.46 nM
